# B1: MLH1 (parent)
# chain: YAHQMVRTDSREQKLDAFLQPLSK
# B2: CAMK2D (parent)
# chain: LLKHPNIVRLHDSISEEGFHYLVF
# Variants of: B1
# Experiment: protein stability index of a GFP-peptide fusion (GPS, HEK-293T) (PSI 1-6); higher = more stable
# Details: c terminus: a fixed tail appended
# 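Also: lentivirally expressed fusions sorted by FACS into six bins by GFP to DsRed ratio, PSI derived from sequencing read proportions per bin multiplied by bin number.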
row,Variant,protein stability index
1,YAHQMVRTDSREQKLDAFLQHLSK [P21H],2.57
2,YAHQMVRTDSREQKLDAFLQMLSK [P21M],1.9
3,YAHQMVRTDLREQKLDAFLQPLSK [S10L],1.72
4,YAHQMVRTDSREQKLDAFLQPLSI [K24I],1.95
5,YAHQMVRTDSREQKLDAFLQPLSG [K24G],2.48
6,YLHQMVRTDSREQKLDAFLQPLSK [A2L],2.84
7,YQHQMVRTDSREQKLDAFLQPLSK [A2Q],2.74
8,YAHQMTRTDSREQKLDAFLQPLSK [V6T],2.7
9,YAHQMLRTDSREQKLDAFLQPLSK [V6L],2.48
10,YAHCMVRTDSREQKLDAFLQPLSK [Q4C],2.07
11,YAHRMVRTDSREQKLDAFLQPLSK [Q4R],1.93
12,YAHFMVRTDSREQKLDAFLQPLSK [Q4F],2
13,IAHQMVRTDSREQKLDAFLQPLSK [Y1I],3.38
14,GAHQMVRTDSREQKLDAFLQPLSK [Y1G],3.87
15,LAHQMVRTDSREQKLDAFLQPLSK [Y1L],3.16
16,TAHQMVRTDSREQKLDAFLQPLSK [Y1T],3.87
17,YAHQMVRTDSRLQKLDAFLQPLSK [E12L],2
18,YAHQMVRTDSRAQKLDAFLQPLSK [E12A],2.37
19,YAHQMVRTDSRCQKLDAFLQPLSK [E12C],2.19
20,YAHQMVRTDSREQKLKAFLQPLSK [D16K],2.63
21,YAHQMVRTDSREQKLSAFLQPLSK [D16S],2.1
22,YAHQMVRTDSREQKLDAFGQPLSK [L19G],2.12
23,YAHQMVRTDSREQKLDAFKQPLSK [L19K],3.16

row,Variant,protein stability index
1,YAHQMVRTDSREQKLDAFPQPLSK [L19P],2.55
2,YAHQMVRTDSREQKWDAFLQPLSK [L15W],2.37
3,YAHQMVRTDSREQKQDAFLQPLSK [L15Q],3.77
4,YAHQMVRTDSREQKHDAFLQPLSK [L15H],2.57
5,YAHQMVRTPSREQKLDAFLQPLSK [D9P],2.29
6,YAHQMVRTVSREQKLDAFLQPLSK [D9V],1.89
7,YAHQMVRTWSREQKLDAFLQPLSK [D9W],1.8
8,YAHQMVRTMSREQKLDAFLQPLSK [D9M],2.49
9,YAHQMVRTQSREQKLDAFLQPLSK [D9Q],2.7
10,YAHQMVRTTSREQKLDAFLQPLSK [D9T],1.99
11,YAHQMVRTESREQKLDAFLQPLSK [D9E],2.95
12,YAHQMVRTDSREQKLDAGLQPLSK [F18G],2.79
13,YAHQMVRTDSREQKLDASLQPLSK [F18S],3.52
14,YAHQMVRTDSREQKLDAFLQPLRK [S23R],2.45
15,YAHQMVRTDSREQKLDAFLQPLTK [S23T],2.43
16,YAHQMVITDSREQKLDAFLQPLSK [R7I],2.57
17,YAHQMVRTDSREQKLDVFLQPLSK [A17V],3.02
18,YAHQMVRTDSREQKLDSFLQPLSK [A17S],2.57
19,YAHQMVRTDSREQKLDAFLQPISK [L22I],3.13
20,YAHQMVRTDSREQKLDAFLQPHSK [L22H],2.45
21,YAHQMVRTDSREQKLDAFLYPLSK [Q20Y],1.88
22,YAHQMVRTDSRERKLDAFLQPLSK [Q13R],2.78
23,YAHQMVRTDSRENKLDAFLQPLSK [Q13N],2.48

# Variants of: B2
# Experiment: as above
# Details: c terminus: a fixed tail appended
row,Variant,protein stability index
1,LLKHPNIVRLHDSISEEGFHYMVF [L22M],2.59
2,LLKHPNIVRLHDSISEEGFHYIVF [L22I],2.96
3,LLKHPNIVRLHDSISEEGFHYWVF [L22W],1.88
4,LLKHPNIVRLHDSISEEGFHYVVF [L22V],1.03
5,LLKHPNIVRLHDSISEEGFHYHVF [L22H],2.19
6,LLKHPNIVRLHDEISEEGFHYLVF [S13E],1.47
7,LLKHPNIVRLHDQISEEGFHYLVF [S13Q],1.7
8,LLKHPNIVRLHDWISEEGFHYLVF [S13W],1.84
9,LLKHPNIVRLHDNISEEGFHYLVF [S13N],2.13
10,LLKHPNIVRLHDLISEEGFHYLVF [S13L],2.29
11,LLKHPNIVRLHDHISEEGFHYLVF [S13H],2.91
12,LLKHPNIVRLHDSISEEGFHGLVF [Y21G],2.37
13,LLKHPNIVRLHDSISEEGFHPLVF [Y21P],1.96
14,LLKHPNIVRLHDSISEEGFHALVF [Y21A],1.38
15,LLKHPNIVRLHDSISEEGFHSLVF [Y21S],2.33
16,LLKHPNIVRLHDSISEDGFHYLVF [E17D],2.66
17,LLKHPNIVRLHDSISEPGFHYLVF [E17P],2.75
18,LLKHPNIVRLHDSISEFGFHYLVF [E17F],2.27
19,LLKHPNIVRLHDSISEEGFHYLVL [F24L],2.94
20,LLKHPNIVRLHDSISEEGFHYLVK [F24K],1.71
21,LLKHPNIVRLHDSISEEGFHYLVR [F24R],2.06
22,LLKHPNIVRLHDSISEEGFHYLVC [F24C],1.84
23,LLKHPNIVRLHDSISEEGFHYLVQ [F24Q],1.85
24,LLKHPNIVRLHDSISEEGFHYLVN [F24N],1.51

row,Variant,protein stability index
1,LLKHPNIVRLHDSISEEGFHYLVY [F24Y],2.28
2,LLKHPNNVRLHDSISEEGFHYLVF [I7N],3.17
3,LLKHPNTVRLHDSISEEGFHYLVF [I7T],2.19
4,LLKHPNHVRLHDSISEEGFHYLVF [I7H],3.65
5,LLKHPNSVRLHDSISEEGFHYLVF [I7S],1.89
6,LLKHPNEVRLHDSISEEGFHYLVF [I7E],2.67
7,LLKHPNAVRLHDSISEEGFHYLVF [I7A],1.95
8,LLKHPNFVRLHDSISEEGFHYLVF [I7F],2.39
9,LLKHPNIVRLHDSIYEEGFHYLVF [S15Y],2.34
10,LLKHPNIVRLHDSIKEEGFHYLVF [S15K],2.45
11,LLKHPNIVRLHDSILEEGFHYLVF [S15L],2.19
12,LLKHPNIVRLHDSIEEEGFHYLVF [S15E],2.57
13,LLKHPNIVRLHDSIGEEGFHYLVF [S15G],1.8
14,LLKHPNIVRLHDSITEEGFHYLVF [S15T],1.3
15,LLKHPNIVRLHDSIDEEGFHYLVF [S15D],1.44
16,LLKHPNIVRLHDSINEEGFHYLVF [S15N],2.31
17,LLKHPNIVRLHDSISEEGFHYLLF [V23L],2
18,LLKHPNIVRLHDSISEEGFHYLHF [V23H],2.57
19,LLKHPNIVRLHDSISEEGFHYLWF [V23W],2.78
20,LLKHPNIVRLHDSISEEGFHYLEF [V23E],1.38
21,LLKHPNIVRLHDSISEEGFHYLAF [V23A],2.81
22,LLKHPNIVRLHDSISEEGMHYLVF [F19M],2.08
23,LLKHPNIVRLHDSISEEGNHYLVF [F19N],2.03
24,LLKHPNIVRLHDSISEEGCHYLVF [F19C],1.37
